Experimental data reported in article PMC5389473 (Nucleic Acids Research, 2016).
Ends that are not written are not given here. * marks the point of attachment. FITC = O=C1OC2(c3ccc(O)cc3Oc3cc(O)ccc32)c2ccc(NC(=S)*)cc21

What was measured:
Assay in all cases: fluorescence polarisation; fluorescein-labelled pol β NLS peptide against the concentration of the Impα construct; apparent dissociation constants; as in ref. 56
Conditions in all cases: both partners purified
[1] = target: human Importin α5, residues 66–512 (hImpα5ΔIBB) (human, UniProt P52294 66-512)
human Importin α5, residues 66–512 (hImpα5ΔIBB), sequence (P52294 66-512, stated change not applied): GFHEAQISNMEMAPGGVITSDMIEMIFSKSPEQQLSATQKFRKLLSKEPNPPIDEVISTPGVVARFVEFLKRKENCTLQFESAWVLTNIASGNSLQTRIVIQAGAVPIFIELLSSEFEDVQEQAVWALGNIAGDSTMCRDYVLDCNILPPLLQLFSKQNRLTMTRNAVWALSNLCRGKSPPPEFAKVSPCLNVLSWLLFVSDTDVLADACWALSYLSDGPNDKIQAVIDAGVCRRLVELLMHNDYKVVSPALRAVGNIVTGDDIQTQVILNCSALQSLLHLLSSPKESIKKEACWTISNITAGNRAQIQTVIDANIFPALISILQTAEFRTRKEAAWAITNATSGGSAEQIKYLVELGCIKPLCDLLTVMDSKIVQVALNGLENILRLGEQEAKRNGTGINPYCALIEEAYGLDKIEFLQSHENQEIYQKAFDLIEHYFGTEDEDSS

[2] = target: T1, murine Importin α1 with the Importin β binding domain deleted (mImpα1ΔIBB) (mouse, UniProt P52293 70-529)
[3] = target: T2, full-length murine Importin α1 (mImpα1) (mouse, UniProt P52293 1-529)
[4] = target: T1, murine Importin α1 with the Importin β …; remark: listed apart in the source
[5] = target: T2, full-length murine Importin α1 (mImpα1); remark: listed apart in the source

Binder: SKRKAPQETLNGGK(FITC) [fluorescein-labeled pol β NLS peptide SKRKAPQETLNGG-Lys(FITC)]
- Kd [1]: 720 ± 30 nM
- Kd [2]: 3.6 ± 0.4 µM
- Kd [3]: 61.8 ± 1.7 µM
- Kd [4]: 2000 nM
- Kd [5]: 54.3 µM
